Results published in patent US10677783B2, “Method for evaluating effect of cytokine on metabolic activity of cytochrome P450, and drug screening method” (Corning Incorporated, priority 2012, dated 2020).

Experiments:
Assay type in all cases: cell-based, human
[1] = tested on: CYP3A4; assay: CYP3A4 mRNA expression by RT-qPCR in spheroid-shaped FLC-4 cells (example, MICRO-SPACE); conditions: EGF 10 ng/mL, drug-free vs cytokine-free and drug-free; FIG. 20
Source text: (§1) A plurality of culture chambers 10a are formed on the bottom culture surface of each well 21a. Each culture chamber 10a includes culture rooms 11a each having the equivalent diameter D of 200 μm and the height H of 100 μm. The width W of each wall 12a is 10 μm.
(§2) As cells to be cultured, FLC-4 cells which are established hepatocyte cell lines […] were used.
As a culture medium, a DMEM/F 12 culture medium containing 10% fetal bovine serum (FBS) was used. A cell suspension was adjusted at a cell seeding density of 16×10^5 cells/mL.
The cells were cultured in a CO2 incubator for 10 to 11 days. The culture medium was replaced once every three days.
(§3) The total amount of old culture medium was removed from each well by using a pipette (culture medium removing process).
A test solution or a control solution was added to each well (test solution addition process).
The cells were incubated in a CO2 incubator for eight hours, 24 hours, or 48 hours at 37° C. (contact process). […]
The analysis was made using a total amount of 20 μL of reaction liquid containing 9.6 μL of EagleTaq Master Mix with ROX (Roche, Branchburg, N.J., USA), 0.96 μL of 20× Assays-on-Demand™ Gene Expression Assay Mix (Applied Biosystems), 7.1 μL of sterilized MiliQ water, and 1.8 μL of cDNA diluted by a factor of 5, and the reaction liquid was measured by Real-time PCR.

[2] = tested on: CYP3A4; assay: Amount of CYP3A4 protein by western blotting in spheroid-shaped FLC-4 cells (example, MICRO-SPACE)
Source text: as §1, §2
(§4) Epidermal Growth Factor (EFG) was used as the cytokine.
(§5) DMEM/F12 (DMEM/E12 FBS(−)) containing no serum was used as a solvent for each test solution.
(§6) To study the cytokine concentrations of the second and third test solutions, test solutions respectively having EGF concentrations of 0.1 ng/mL, 1 ng/mL, and 10 ng/mL were prepared. Note that the cells were cultured in each test solution in advance to obtain a cell survival rate, and it was confirmed that the cell survival rate at these concentrations was 80% or more.
The total amount of old culture medium was removed from each well by using a pipette (culture medium removing process). […]
(§7) The cells corresponding to three to six wells were sonicated by a Lysis buffer containing 0.1% protease inhibitor cocktail and 1 mM PMSF (Phenylmethyl sulfonyl fluoride). […] ImmunoStar LD (Wako Pure Chemical Industries, Ltd.) was used as protein and was detected using LAS-1000 plus (Fujifilm, Tokyo).

[3] = tested on: CYP3A4; assay: Amount of CYP3A4 protein by western blotting in FLC-4 cells on flat 24-well plate (comparative example, CONFLUENT)
Method: As the culture chamber, a commercially-available 24-well plate having a flat culture surface was used. The cell culture grade was used as the grade for the culture plate.
Except for the above-mentioned conditions, the comparative example was carried out under the same conditions as those for the example.
as §4, §5, §6, §3
Each test solution for studying the cytokine concentration was added to each well (test solution addition process). […]
as §7

[4] = tested on: FLC-4 cells; assay: Cell survival rate of cells cultured in cytokine test solutions; conditions: EGF concentrations of 0.1, 1 and 10 ng/mL
Method: as §6

[5] = EGF 0, 0.1, 1, 10 ng/mL, western blotting

B1: Epidermal Growth Factor (protein, UniProt P01133 23-1207, looked up)
Pro-epidermal growth factor: PQHWSCPEGTLAGNGNSTCVGPAPFLIFSHGNSIFRIDTEGTNYEQLVVDAGVSVIMDFHYNEKRIYWVDLERQLLQRVFLNGSRQERVCNIEKNVSGMAINWINEEVIWSNQQEGIITVTDMKGNNSHILLSALKYPANVAVDPVERFIFWSSEVAGSLYRADLDGVGVKALLETSEKITAVSLDVLDKRLFWIQYNREGSNSLICSCDYDGGSVHISKHPTQHNLFAMSLFGDRIFYSTWKMKTIWIANKHTGKDMVRINLHSSFVPLGELKVVHPLAQPKAEDDTWEPEQKLCKLRKGNCSSTVCGQDLQSHLCMCAEGYALSRDRKYCEDVNECAFWNHGCTLGCKNTPGSYYCTCPVGFVLLPDGKRCHQLVSCPRNVSECSHDCVLTSEGPLCFCPEGSVLERDGKTCSGCSSPDNGGCSQLCVPLSPVSWECDCFPGYDLQLDEKSCAASGPQPFLLFANSQDIRHMHFDGTDYGTLLSQQMGMVYALDHDPVENKIYFAHTALKWIERANMDGSQRERLIEEGVDVPEGLAVDWIGRRFYWTDRGKSLIGRSDLNGKRSKIITKENISQPRGIAVHPMAKRLFWTDTGINPRIESSSLQGLGRLVIASSDLIWPSGITIDFLTDKLYWCDAKQSVIEMANLDGSKRRRLTQNDVGHPFAVAVFEDYVWFSDWAMPSVMRVNKRTGKDRVRLQGSMLKPSSLVVVHPLAKPGADPCLYQNGGCEHICKKRLGTAWCSCREGFMKASDGKTCLALDGHQLLAGGEVDLKNQVTPLDILSKTRVSEDNITESQHMLVAEIMVSDQDDCAPVGCSMYARCISEGEDATCQCLKGFAGDGKLCSDIDECEMGVPVCPPASSKCINTEGGYVCRCSEGYQGDGIHCLDIDECQLGEHSCGENASCTNTEGGYTCMCAGRLSEPGLICPDSTPPPHLREDDHHYSVRNSDSECPLSHDGYCLHDGVCMYIEALDKYACNCVVGYIGERCQYRDLKWWELRHAGHGQQQKVIVVAVCVVVLVMLLLLSLWGAHYYRTQKLLSKNPKNPYEESSRDVRSRRPADTEDGMSSCPQPWFVVIKEHQDLKNGGQPVAGEDGQAADGSMQPTSWRQEPQLCGMGTEQGCWIPVSSDKGSCPQVMERSFHMPSYGTQTLEGGVEKPHSLLSANPLWQQRALDPPHQMELTQ
modifications: Pro-epidermal growth factor
notes: Epidermal Growth Factor used as the cytokine
**Q.** Which results are given for B1?
**A.** value of the metabolic function of CYP3A4 (mRNA expression level), second test solution versus first test solution [1]: lower; function of CYP3A4 (amount of CYP3A4 protein, bands), concentration dependency [2, 5]: decreases depending on the concentration; amount of CYP3A4 protein, second test solution versus first test solution ([2]; EGF 10 ng/mL (M10) vs 0 ng/mL (M0), FIG. 19): M0 is greater than M10; function of CYP3A4 (amount of CYP3A4 protein, bands), concentration dependency [3, 5]: the concentration dependency was not confirmed; amount of CYP3A4 protein, second test solution versus first test solution ([3]; EGF 10 ng/mL (C10) vs 0 ng/mL (C0), FIG. 19): C0 and C10 are nearly equal; cell survival rate [4]: ≥ 80%
